Molecular target: T1, mouse α5β1 integrin (mouse, UniProt P11688 45-1053; P09055 21-798)
T1 construct: Named as present on mouse xenograft tumor vasculature
Test: not described

T1 sequence (P11688 45-1053, chain 1 of 2): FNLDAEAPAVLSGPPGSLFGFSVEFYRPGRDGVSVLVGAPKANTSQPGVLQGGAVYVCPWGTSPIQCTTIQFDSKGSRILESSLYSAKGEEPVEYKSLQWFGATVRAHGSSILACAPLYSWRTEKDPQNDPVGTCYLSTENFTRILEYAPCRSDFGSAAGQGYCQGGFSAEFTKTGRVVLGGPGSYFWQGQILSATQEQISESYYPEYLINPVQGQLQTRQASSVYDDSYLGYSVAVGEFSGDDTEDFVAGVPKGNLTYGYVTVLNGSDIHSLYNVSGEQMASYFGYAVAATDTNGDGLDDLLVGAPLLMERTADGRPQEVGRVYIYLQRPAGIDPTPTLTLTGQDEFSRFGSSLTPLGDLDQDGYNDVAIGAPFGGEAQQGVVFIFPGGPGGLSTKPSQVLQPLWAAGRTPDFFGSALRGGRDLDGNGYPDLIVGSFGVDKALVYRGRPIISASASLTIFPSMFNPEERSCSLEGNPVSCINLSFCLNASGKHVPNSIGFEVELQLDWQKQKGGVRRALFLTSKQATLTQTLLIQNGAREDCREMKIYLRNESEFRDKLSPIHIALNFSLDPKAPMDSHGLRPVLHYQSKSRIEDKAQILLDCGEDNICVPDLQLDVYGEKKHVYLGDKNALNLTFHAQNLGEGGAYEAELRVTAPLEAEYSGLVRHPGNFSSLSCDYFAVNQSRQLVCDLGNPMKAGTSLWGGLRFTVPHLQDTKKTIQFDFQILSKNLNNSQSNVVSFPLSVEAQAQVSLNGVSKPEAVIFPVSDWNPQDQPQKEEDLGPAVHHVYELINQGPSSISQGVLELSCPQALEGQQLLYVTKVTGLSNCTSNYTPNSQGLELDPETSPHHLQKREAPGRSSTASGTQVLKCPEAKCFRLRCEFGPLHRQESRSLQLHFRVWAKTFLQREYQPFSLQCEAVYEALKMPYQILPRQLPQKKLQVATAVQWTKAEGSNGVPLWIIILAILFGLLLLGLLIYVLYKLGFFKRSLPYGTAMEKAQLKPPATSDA
T1 sequence (P09055 21-798, chain 2 of 2): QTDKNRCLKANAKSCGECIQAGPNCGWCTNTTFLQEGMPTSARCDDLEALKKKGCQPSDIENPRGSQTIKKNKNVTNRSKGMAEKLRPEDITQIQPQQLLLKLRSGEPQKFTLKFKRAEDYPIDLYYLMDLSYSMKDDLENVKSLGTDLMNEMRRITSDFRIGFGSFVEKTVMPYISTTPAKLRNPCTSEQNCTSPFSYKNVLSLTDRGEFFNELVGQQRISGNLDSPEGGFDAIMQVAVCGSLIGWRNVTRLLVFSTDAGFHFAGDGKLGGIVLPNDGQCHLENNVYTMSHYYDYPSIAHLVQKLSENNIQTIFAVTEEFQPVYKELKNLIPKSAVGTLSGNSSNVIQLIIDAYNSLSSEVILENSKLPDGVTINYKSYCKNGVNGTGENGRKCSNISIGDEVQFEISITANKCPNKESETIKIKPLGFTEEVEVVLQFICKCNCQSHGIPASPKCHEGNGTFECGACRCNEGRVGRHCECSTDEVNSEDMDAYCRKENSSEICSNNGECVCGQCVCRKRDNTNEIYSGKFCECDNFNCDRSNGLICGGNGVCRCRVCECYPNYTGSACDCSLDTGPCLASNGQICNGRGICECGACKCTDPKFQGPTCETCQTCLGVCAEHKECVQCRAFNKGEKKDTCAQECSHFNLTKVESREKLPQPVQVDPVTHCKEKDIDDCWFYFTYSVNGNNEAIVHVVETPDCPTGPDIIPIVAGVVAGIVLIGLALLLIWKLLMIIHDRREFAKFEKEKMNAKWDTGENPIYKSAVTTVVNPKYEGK

B1: IIA1, anti-α5β1 mouse antibody (antibody, mouse IgG1, V domains shown)
VH: QVQLKESGPGLVAPSQSLSITCTISGFSLTDYGVHWVRQPPGKGLEWLVVIWSDGSSTYNSALKSRMTIRKDNSKSQVFLIMNSLQTDDSAMYYCARHGTYYGMTTTGDALDYWGQGTSVTVSS
VL: QIVLTQSPAIMSASLGERVTMTCTASSSVSSNYLHWYQQKPGSAPNLWIYSTSNLASGVPARFSGSGSGTSYSLTISSMEAEDAATYYCHQYLRSPPTFGGGTKLEIK
notes: also called mouse anti-α5β1 antibody
**Q.** Does B1 bind?
**A.** Result: no binding

B2: M200, chimeric anti-α5β1 antibody (antibody, IgG4, V domains shown)
VH: QVQLKESGPGLVAPSQSLSITCTISGFSLTDYGVHWVRQPPGKGLEWLVVIWSDGSSTYNSALKSRMTIRKDNSKSQVFLIMNSLQTDDSAMYYCARHGTYYGMTTTGDALDYWGQGTSVTVSS
VL: QIVLTQSPAIMSASLGERVTMTCTASSSVSSNYLHWYQQKPGSAPNLWIYSTSNLASGVPARFSGSGSGTSYSLTISSMEAEDAATYYCHQYLRSPPTFGGGTKLEIK
notes: also called volociximab
**Q.** Does B2 bind?
**A.** Result: no binding

— US20050260210A1 (FACET BIOTECH, published 2005)
